Here are results for one molecule from article PMC4251702, “Plasmodium falciparum aldolase and the C-terminal cytoplasmic domain of certain apical organellar proteins promote actin polymerization” (Molecular and Biochemical Parasitology, 2014).

Assay [1] deals with rabbit muscle G-actin, biotinylated (rabbit, UniProt P68135 1-377). The assay is described as follows: BLI. The settings on record: both partners purified.
The target of assay [2] is rabbit muscle F-actin, biotinylated (rabbit, UniProt P68135 1-377). The assay is described as follows: BLI. The settings on record: both partners purified.

B1: Plasmodium falciparum aldolase (enzyme)
chain: MAHCTEYMNAPKKLPADVAEELATTAQKLVQAGKGILAADESTQTIKKRFDNIKLENTIENRASYRDLLFGTKGLGKFISGAILFEETLFQKNEAGVPMVNLLHNENIIPGIKVDKGLVNIPCTDEEKSTQGLDGLAERCKEYYKAGARFAKWRTVLVIDTAKGKPTDLSIHETAWGLARYASICQQNRLVPIVEPEILADGPHSIEVCAVVTQKVLSCVFKALQENGVLLEGALLKPNMVTAGYECTAKTTTQDVGFLTVRTLRRTVPPALPGVVFLSGGQSEEEASVNLNSINALGPHPWALTFSYGRALQASVLNTWQGKKENVAKAREVLLQRAEANSLATYGKYKGGAGGENAGASLYEKKYVY
notes: also called Pf aldolase; recombinant Pf aldolase; source: E. coli BL21 (pGEX-5X), purified, GST tag removed
As for B1, the dissociation constant (Kd) in assay [1] amounted to 330 nM; in assay [2], 365 nM.

For orientation: Kd means the concentration at which binding is half-saturated. A higher Kd goes with lower affinity.
